Target: T1, extracellular Venus Flytrap (VFT) module of human GBR2 (human, UniProt O75899 42-466, carbohydrate at Asn404)
T1 sequence (looked up): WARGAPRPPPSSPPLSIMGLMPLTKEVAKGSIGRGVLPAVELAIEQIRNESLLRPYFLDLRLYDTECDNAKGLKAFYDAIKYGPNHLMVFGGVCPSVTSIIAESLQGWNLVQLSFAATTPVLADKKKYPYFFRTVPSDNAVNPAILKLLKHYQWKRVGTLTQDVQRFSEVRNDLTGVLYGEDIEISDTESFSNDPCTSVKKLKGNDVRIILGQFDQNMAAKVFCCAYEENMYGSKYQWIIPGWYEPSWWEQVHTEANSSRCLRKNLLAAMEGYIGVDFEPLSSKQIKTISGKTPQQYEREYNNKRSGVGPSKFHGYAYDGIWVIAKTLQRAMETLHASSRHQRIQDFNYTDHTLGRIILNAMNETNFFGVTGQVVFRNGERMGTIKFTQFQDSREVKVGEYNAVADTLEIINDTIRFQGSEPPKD
Test: crystal structure

binding result: binds
B1: extracellular Venus Flytrap (VFT) module of human GBR1b (domain or fragment, UniProt Q9UBS5-2 48-459, looked up)
chain: SERRAVYIGALFPMSGGWPGGQACQPAVEMALEDVNSRRDILPDYELKLIHHDSKCDPGQATKYLYELLYNDPIKIILMPGCSSVSTLVAEAARMWNLIVLSYGSSSPALSNRQRFPTFFRTHPSATLHNPTRVKLFEKWGWKKIATIQQTTEVFTSTLDDLEERVKEAGIEITFRQSFFSDPAVPVKNLKRQDARIIVGLFYETEARKVFCEVYKERLFGKKYVWFLIGWYADNWFKIYDPSINCTVDEMTEAVEGHITTEIVMLNPANTRSISNMTSQEFVEKLTKRLKRHPEETGGFQEAPLAYDAIWALALALNKTSGGGGRSGVRLEDFNYNNQTITDQIYRAMNSSSFEGVSGHVVFDASGSRMAWTLIEQLQGGSYKKIGYYDSTKDDLSWSKTDKWIGGSPPAD
modifications: carbohydrate at Asn323 and Asn365 (seen in apo and antagonist-bound structures)

— publication PMC3865065 (Nature, 2013)
